Measurements published in patent US5863889A, “ICAM-1/LFA-1 short-chain peptides and method of using same” (The University of Kansas, priority 1996, dated 1999).
Entries after “also recorded” stand apart in the source; their conditions may differ.

Tests used:
Assay type in all cases: cell-based
[1] = tested on: Molt3 cells; assay: Cell metabolic assay (MTT)
Description: After taking the photographs in Example 3 (and in some instances no photographs were taken), cell metabolic activity was assessed by an MTT assay. A 37.5 μl portion of MTT dye (purchased from SIGMA of St. Louis, Mo.), i.e., 3-[4,5-dimethyl thiazole-2yl]-2, 5- diphenyl tetrazolium bromide; thiazolyl blue) was added to each well, and incubated with the cells at 37° C. for about six hours. After incubation, a 250 μl quantity of a MTT solubilization solution (of a type that may be purchased from either Fischer Scientific of St. Louis, Mo. or BCD Labs of Lawrence, Kans.) was added to each well, and incubated with the cells at room temperature overnight. In the morning, the spectrophotometric absorption of each plate was determined at 570 nm in a microplate ELISA reader manufactured by Cambridge Technologies of Water-town, Mass., in order to assess cell viability as an indicator of potential peptide toxicity.

[2] = target: T1, LFA-1 (CD11a) (Homo sapiens, UniProt P20701); assay: Antibody binding assay (FACS): anti-LFA-1 mAb (mouse IgG anti-human CD11a) binding to Molt3 T-cells after peptide incubation; settings: for Fluorescence, % change from control of the medium fluorescence intensity: mAb CD11a, average ± standard error of runs
T1 construct: host or cells: Molt3 human T-cell leukemia line
T1 sequence (P20701 26-1170): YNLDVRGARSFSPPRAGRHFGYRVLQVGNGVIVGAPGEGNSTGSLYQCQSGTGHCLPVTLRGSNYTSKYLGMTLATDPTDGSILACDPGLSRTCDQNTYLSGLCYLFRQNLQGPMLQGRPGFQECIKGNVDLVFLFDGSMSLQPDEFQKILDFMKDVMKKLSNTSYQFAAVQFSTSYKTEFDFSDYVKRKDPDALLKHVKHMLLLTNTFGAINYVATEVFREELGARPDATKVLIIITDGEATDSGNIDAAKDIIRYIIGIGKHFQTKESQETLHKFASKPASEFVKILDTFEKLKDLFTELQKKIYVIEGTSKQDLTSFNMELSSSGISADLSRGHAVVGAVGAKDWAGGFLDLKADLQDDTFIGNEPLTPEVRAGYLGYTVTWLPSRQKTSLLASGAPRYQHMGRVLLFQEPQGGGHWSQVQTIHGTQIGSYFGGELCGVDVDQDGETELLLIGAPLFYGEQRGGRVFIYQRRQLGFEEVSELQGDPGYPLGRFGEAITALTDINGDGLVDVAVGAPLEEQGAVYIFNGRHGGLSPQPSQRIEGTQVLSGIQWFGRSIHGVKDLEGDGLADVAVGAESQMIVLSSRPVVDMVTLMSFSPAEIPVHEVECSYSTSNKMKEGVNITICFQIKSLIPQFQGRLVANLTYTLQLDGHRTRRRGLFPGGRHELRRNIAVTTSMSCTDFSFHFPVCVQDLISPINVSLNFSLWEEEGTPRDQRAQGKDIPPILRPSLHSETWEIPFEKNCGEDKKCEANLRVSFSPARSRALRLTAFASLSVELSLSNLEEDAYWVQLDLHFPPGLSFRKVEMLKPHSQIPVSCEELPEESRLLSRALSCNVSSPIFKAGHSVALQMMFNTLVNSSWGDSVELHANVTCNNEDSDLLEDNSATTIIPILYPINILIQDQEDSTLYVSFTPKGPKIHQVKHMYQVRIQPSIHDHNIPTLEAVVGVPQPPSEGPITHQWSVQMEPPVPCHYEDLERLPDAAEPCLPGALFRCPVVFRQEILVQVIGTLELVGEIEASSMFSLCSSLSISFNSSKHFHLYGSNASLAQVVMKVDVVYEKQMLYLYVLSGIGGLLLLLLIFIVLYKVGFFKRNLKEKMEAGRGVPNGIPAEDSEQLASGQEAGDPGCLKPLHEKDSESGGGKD
T1 sequence (P05107 23-769 partner): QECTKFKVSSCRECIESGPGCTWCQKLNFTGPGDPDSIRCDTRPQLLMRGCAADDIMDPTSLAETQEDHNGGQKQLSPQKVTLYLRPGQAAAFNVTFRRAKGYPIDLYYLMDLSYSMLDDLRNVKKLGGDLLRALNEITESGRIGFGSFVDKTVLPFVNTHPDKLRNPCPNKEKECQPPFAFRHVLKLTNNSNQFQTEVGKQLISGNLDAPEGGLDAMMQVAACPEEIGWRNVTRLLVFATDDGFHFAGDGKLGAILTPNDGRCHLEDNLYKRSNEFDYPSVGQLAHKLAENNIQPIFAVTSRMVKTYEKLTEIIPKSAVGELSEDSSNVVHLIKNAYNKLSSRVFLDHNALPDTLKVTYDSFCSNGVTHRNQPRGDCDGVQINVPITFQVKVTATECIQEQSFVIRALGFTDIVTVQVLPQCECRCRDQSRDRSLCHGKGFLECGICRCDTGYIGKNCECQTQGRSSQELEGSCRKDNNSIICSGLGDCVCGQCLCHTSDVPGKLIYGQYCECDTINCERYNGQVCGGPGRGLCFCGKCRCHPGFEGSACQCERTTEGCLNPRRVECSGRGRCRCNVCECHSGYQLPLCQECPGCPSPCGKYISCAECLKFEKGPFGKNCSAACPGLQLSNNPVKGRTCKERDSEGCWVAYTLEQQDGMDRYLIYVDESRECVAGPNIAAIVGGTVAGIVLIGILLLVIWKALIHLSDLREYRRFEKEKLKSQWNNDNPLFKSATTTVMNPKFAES
Description: A 1 ml quantity of the Molt3 inoculum was warmed to 37° C. and transferred by pipette into about 25 ml of a growth culture medium including RPMI 1640 lymphocyte growth medium (Fisher Scientific of St. Louis, Miss.) mixed with 10% by volume fetal calf serum, 100 units/ml penicillin, 100 μg/ml streptomycin and 2 mM glutamine. The inoculated culture was incubated for three to four days at 37° C. under a normal atmosphere having about 5% CO2 added thereto. This culture was capable of being maintained indefinitely by siphoning away the top (non-cell containing) layer and adding 50 ml (or more) of growth culture medium at intervals of three to four days.
An aqueous buffer solution including Dulbecco's phosphate buffered saline and bovine serum albumin ("-PBS/BSA solution") was prepared for use, and included a mixture of 200 mg KH2 PO4, 1.15 g Na2 HPO4, 100 mg CaCl2, 200 mg KCl, 100 mg MgCl2.6H2 O, 8 g NaCl, with distilled water added to a final 1 liter volume at room temperature, thus, forming a "PBS" solution of pH 7.4 to which was added 0.5% by weight bovine serum albumin.
An aliquot of about 7 ml was removed from the incubated culture medium and subjected to washing with the PBS/BSA solution. The washing procedure was initiated by placing the aliquot in a centrifuge (Model GT422 from Jouan, distributed Piruscio & Assoc. of Manchester, Miss.) at 1400 rpm for 6.5 minutes to separate the cells from the growth medium. The supernatant fluid was decanted, a 5 ml portion of PBS/BSA solution was transferred by pipette into the pellet, and the mixture was again centrifuged as before. The resulting supernatant fluid was decanted and the cells from the pellet were resuspended in PBS/BSA solution at a titer of about 1×10^6 cells/ml. A 500 μl portion of the solution containing the resuspended cells was placed in a microcentrifuge (Marathon 13K/M from Fisher Scientific of St. Louis, Miss.) at 3500 rpm for six minutes, to provide a washed pellet.
[…] The cells were incubated with the peptide cocktail at 37° C. for 45 minutes.
After incubation with the peptide cocktail, several antibodies were successively mixed into the incubated solution. A 75 μl portion of anti-IgM solution (a mixture of 10 μl of goat anti-human IgM stock purchased from Jackson Immuno Research of Westgrove, Pa.; and 65 μl of PBS/BSA solution) was added to the peptide cocktail for blocking of nonspecific binding of the secondary antibody. The resulting mixture was incubated for 10 minutes on ice. About 0.1 μg of a primary antibody including mouse IgG anti-human CD11a (purified according to conventional protocols at the University of Kansas Department of Pharmacology and Toxicology from an American Type Culture hybridoma cell line having Catalogue Number HB-202) was next stirred into the mixture, which was then incubated for 30 minutes at room temperature. The incubated mixture was placed in a microcentrifuge at 3500 rpm for six minutes to remove the cells from the mixture, and the cell pellet was washed two times by adding 500 μl aliquots of PBS/BSA solution and microfuging to remove non-bound antibodies from the cells as before. The resulting washed pellet was resuspended in 100 μl of a secondary antibody cocktail including 5 μl of fluorescein isothiocyanate ("FITC") labeled goat anti-mouse IgG (from CALTAG of South San Francisco, Calif.) and 95 μl of PBS/BSA solution. The resulting solution was incubated for 30 minutes at room temperature in the dark.
The incubated solution including the secondary antibody cocktail was microfuged at 3500 rpm for six minutes to remove the cells from the solution, and the cell pellet was washed two times with 500 μl portions of PBS/BSA solution, as before, to remove unbound antibodies. […]

[3] = target: T2, ICAM-1 (Homo sapiens, UniProt P05362); assay: Conformation modulator assay: flow cytometry of FITC-labeled RB-1-88 binding to T-cells after pre-incubation with first peptide; settings: first peptide 4550 μM
T2 construct: host or cells: Molt3 human T-cell leukemia line
T2 sequence (P05362 28-532): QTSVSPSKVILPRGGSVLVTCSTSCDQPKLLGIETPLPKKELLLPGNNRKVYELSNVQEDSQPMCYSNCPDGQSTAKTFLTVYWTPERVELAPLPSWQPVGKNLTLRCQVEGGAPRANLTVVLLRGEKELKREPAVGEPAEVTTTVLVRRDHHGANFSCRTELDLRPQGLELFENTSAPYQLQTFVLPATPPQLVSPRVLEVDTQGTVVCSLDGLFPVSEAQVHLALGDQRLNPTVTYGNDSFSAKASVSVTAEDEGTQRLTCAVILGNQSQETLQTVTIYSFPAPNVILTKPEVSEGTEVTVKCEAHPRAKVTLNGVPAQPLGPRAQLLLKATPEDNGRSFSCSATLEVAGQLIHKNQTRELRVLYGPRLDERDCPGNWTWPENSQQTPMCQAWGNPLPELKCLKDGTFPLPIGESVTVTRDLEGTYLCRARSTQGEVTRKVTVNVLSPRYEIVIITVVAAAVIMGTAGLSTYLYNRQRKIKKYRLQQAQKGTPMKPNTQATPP
Description: The antibody binding assay of Example 2 was twice repeated at a peptide concentration of 4550 μM, each time substituting a 455 nmol quantity of synthetic peptide selected from the group consisting of ICAM-based peptide SC-3-111 (Sequence ID No. 10) and LFA-based peptide LJCRF-4 (Sequence ID No. 16) in respective assays. Following incubation for 30 minutes at 37° C. after introduction of the first peptides, both incubated culture were supplemented by an additional quantity of FITC-labeled RB-1-88 (Sequence ID No. 19) peptide in a quantity sufficient to provide a 1.90 μM concentration in the cell/PBS solution.
Following addition of the RB-1-88 (Sequence ID No. 19) peptide, the mixture was incubated for 30 minutes at 4° C., washed three times with 500 μl PBS/BSA, resuspended in 500 μl PBS/BSA and immediately subjected to a flow cytometer analysis as before. Table 3 presents the results of this analysis, which are also depicted in FIGS. 8 (SC-3-111) and 9 (LJCRF-4).

## SC-3-111: ICAM-1 based short-chain peptide, Sequence ID No. 10 (QTSVSPSKVI)
[1]; peptide 230 μM
  MTT % Viability: 93%
[1]; peptide 460 μM
  MTT % Viability: 95%
[1]; peptide 910 μM
  MTT % Viability: 89%
[1]; peptide 1820 μM
  MTT % Viability: 69%
[2]; peptide 2275 μM
  Fluorescence, % change from control of the medium fluorescence intensity: -12 ± 4%
[2]; peptide 4550 μM, negative = blocking
  Fluorescence, % change from control of the medium fluorescence intensity: -29 ± 2%
[2]; single above-average run (FIGS. 2, 3), peptide 4550 μM, anti-CD11a
  blocking efficiency: 51%
[2]; single run of FIG. 2 (control 264.41), anti-CD11a
  sample median peak fluorescence intensity value: 128.74
[2]; single run of FIG. 2, peptide 4550 μM, anti-CD11a
  % change of median peak vs control: -51%
[3]; then FITC-labeled RB-1-88 1.90 μM, shift vs control
  FACS Analysis (RB-1-88 binding): -8%
[3]; then RB-1-88 1.90 μM, called probably not significant
  negative blocking shift of RB-1-88 binding (FIG. 8): 8%
[3]; FIGS. 8, 9
  effect on binding of labeled peptide (RB-1-88 / LJCRF-6) to T-cell ICAM-1: substantially no T-cell binding enhancement; also recorded: no effect
